According to patent US20180086841A1:

What was measured:
[1] = molecular target: human CD27 (human) (UniProt P26842); experiment: cell ELISA on CD27-transfected CHOK1 cells, n=2
[2] = molecular target: human CD27 (A59T) (human) (UniProt P26842); experiment: cell ELISA on CD27-transfected CHOK1 cells, n=2
[3] = molecular target: Macaca mulatta CD27 (mmCD27) (Macaca mulatta (rhesus) / Macaca fascicularis (cynomolgus)); experiment: cell ELISA on CD27-transfected CHOK1 cells, n=2
[4] = molecular target: W90A; experiment: flow cytometry on CHO-K1 transfectants, right sub-column, cell hatched (loss of binding)
[5] = molecular target: R87A; experiment: as above
[6] = molecular target: Macaca mulatta CD27 (mmCD27) (Macaca mulatta (rhesus) / Macaca fascicularis (cynomolgus)); experiment: flow cytometry MFI, CD8+ T cells in rhesus peripheral blood, n=4
[7] = molecular target: human CD27 (human) (UniProt P26842); experiment: competition cell ELISA on CHO-hCD27; competitor detected: mouse hCD27.15 at 1 µg/ml
[8] = molecular target: Macaca mulatta CD27 (mmCD27) (Macaca mulatta (rhesus) / Macaca fascicularis (cynomolgus)); experiment: flow cytometry MFI, CD4+ T cells in rhesus peripheral blood, n=4
[9] = molecular target: human CD27 (human) (UniProt P26842); experiment: cell-based or functional assay
[10] = molecular target: human CD27 (A59T) (human) (UniProt P26842); experiment: cell-based or functional assay
[11] = molecular target: Macaca mulatta CD27 (mmCD27) (Macaca mulatta (rhesus) / Macaca fascicularis (cynomolgus)); experiment: cell-based or functional assay
[12] = molecular target: G16A; experiment: flow cytometry on CHO-K1 transfectants, left sub-column
[13] = molecular target: R10A; experiment: as above
[14] = molecular target: N88A; experiment: as above
[15] = molecular target: Q41A; experiment: as above
[16] = molecular target: W13A; experiment: as above
[17] = molecular target: R37A; experiment: as above
[18] = molecular target: Q15A; experiment: as above
[19] = molecular target: R93A; experiment: as above
[20] = molecular target: H36A; experiment: as above
[21] = molecular target: Q91A; experiment: as above
[22] = molecular target: V49A; experiment: as above
[23] = molecular target: D32A; experiment: as above
[24] = molecular target: I46A; experiment: as above
[25] = molecular target: F28A; experiment: as above
[26] = molecular target: S63A; experiment: as above
[27] = molecular target: V30A; experiment: as above
[28] = molecular target: E9A; experiment: as above
[29] = molecular target: P44A; experiment: as above
[30] = molecular target: D43A; experiment: as above
[31] = molecular target: K31A; experiment: as above
[32] = molecular target: H60A; experiment: as above
[33] = molecular target: G89A; experiment: as above
[34] = molecular target: K17A; experiment: as above
[35] = molecular target: K38A; experiment: as above
[36] = molecular target: P8A; experiment: as above
[37] = molecular target: G16A; experiment: flow cytometry on CHO-K1 transfectants, right sub-column
[38] = molecular target: Q41A; experiment: as above
[39] = molecular target: R37A; experiment: as above
[40] = molecular target: R93A; experiment: as above
[41] = molecular target: V49A; experiment: as above
[42] = molecular target: D32A; experiment: as above
[43] = molecular target: S63A; experiment: as above
[44] = molecular target: E9A; experiment: as above
[45] = molecular target: K17A; experiment: as above
[46] = molecular target: P8A; experiment: as above
[47] = molecular target: human CD27 (human) (UniProt P26842); experiment: flow cytometry MFI, CD4+ T cells in human peripheral blood, n=4
[48] = molecular target: W90A; experiment: flow cytometry on CHO-K1 transfectants, left sub-column, cell hatched (loss of binding)
[49] = molecular target: R87A; experiment: as above
[50] = molecular target: human CD27 (human) (UniProt P26842); experiment: flow cytometry MFI, CD8+ T cells in human peripheral blood, n=4

Sequence of 1F5-hIgG1 (antibody) (VH): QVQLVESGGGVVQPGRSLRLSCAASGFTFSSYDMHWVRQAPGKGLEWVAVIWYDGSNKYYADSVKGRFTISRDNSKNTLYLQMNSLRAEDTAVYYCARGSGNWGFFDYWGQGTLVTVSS
Sequence of 1F5-hIgG1 (antibody) (VL): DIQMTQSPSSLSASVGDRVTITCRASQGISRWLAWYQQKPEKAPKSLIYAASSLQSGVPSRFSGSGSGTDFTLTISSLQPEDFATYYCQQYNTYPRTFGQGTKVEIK
Sequence of D32A (receptor chain, as listed by the source D32A D32A limits assumed): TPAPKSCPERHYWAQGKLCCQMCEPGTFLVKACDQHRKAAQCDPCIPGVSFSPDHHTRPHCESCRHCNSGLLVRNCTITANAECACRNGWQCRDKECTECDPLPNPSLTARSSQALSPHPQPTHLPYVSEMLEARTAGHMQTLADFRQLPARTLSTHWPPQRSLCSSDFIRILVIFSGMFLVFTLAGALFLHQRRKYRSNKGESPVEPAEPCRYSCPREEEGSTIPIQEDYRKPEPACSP
Sequence of R37A (receptor chain, as listed by the source R37A R37A limits assumed): as the sequence (receptor chain, as listed by the source D32A D32A limits assumed) above, with A32D, R37A counted along it
Sequence of K17A (receptor chain, as listed by the source K17A K17A limits assumed): as the sequence (receptor chain, as listed by the source D32A D32A limits assumed) above, with K17A, A32D counted along it
Sequence of R87A (receptor chain, as listed by the source R87A R87A limits assumed): as the sequence (receptor chain, as listed by the source D32A D32A limits assumed) above, with A32D, R87A counted along it
Sequence of Q41A (receptor chain, as listed by the source Q41A Q41A limits assumed): as the sequence (receptor chain, as listed by the source D32A D32A limits assumed) above, with A32D, Q41A counted along it
Sequence of W90A (receptor chain, as listed by the source W90A W90A limits assumed): as the sequence (receptor chain, as listed by the source D32A D32A limits assumed) above, with A32D, W90A counted along it
Sequence of S63A (receptor chain, as listed by the source S63A S63A limits assumed): as the sequence (receptor chain, as listed by the source D32A D32A limits assumed) above, with A32D, S63A counted along it
Sequence of R93A (receptor chain, as listed by the source R93A R93A limits assumed): as the sequence (receptor chain, as listed by the source D32A D32A limits assumed) above, with A32D, R93A counted along it
Sequence of G16A (receptor chain, as listed by the source G16A G16A limits assumed): as the sequence (receptor chain, as listed by the source D32A D32A limits assumed) above, with G16A, A32D counted along it
Sequence of P8A (receptor chain, as listed by the source limits assumed): as the sequence (receptor chain, as listed by the source D32A D32A limits assumed) above, with P8A, A32D counted along it
Sequence of V49A (receptor chain, as listed by the source V49A V49A limits assumed): as the sequence (receptor chain, as listed by the source D32A D32A limits assumed) above, with A32D, V49A counted along it
Sequence of E9A (receptor chain, as listed by the source limits assumed): as the sequence (receptor chain, as listed by the source D32A D32A limits assumed) above, with E9A, A32D counted along it
Sequence of V30A (receptor chain, as listed by the source V30A V30A limits assumed): as the sequence (receptor chain, as listed by the source D32A D32A limits assumed) above, with V30A, A32D counted along it
Sequence of D43A (receptor chain, as listed by the source D43A D43A limits assumed): as the sequence (receptor chain, as listed by the source D32A D32A limits assumed) above, with A32D, D43A counted along it
Sequence of H36A (receptor chain, as listed by the source H36A H36A limits assumed): as the sequence (receptor chain, as listed by the source D32A D32A limits assumed) above, with A32D, H36A counted along it
Sequence of N88A (receptor chain, as listed by the source N88A N88A limits assumed): as the sequence (receptor chain, as listed by the source D32A D32A limits assumed) above, with A32D, N88A counted along it
Sequence of I46A (receptor chain, as listed by the source I46A I46A limits assumed): as the sequence (receptor chain, as listed by the source D32A D32A limits assumed) above, with A32D, I46A counted along it
Sequence of K38A (receptor chain, as listed by the source K38A K38A limits assumed): as the sequence (receptor chain, as listed by the source D32A D32A limits assumed) above, with A32D, K38A counted along it

EC50 [1]: 0.325 nM | EC50 [2]: 0.326 nM | EC50 [3]: 0.193 nM | binding, WT hCD27 = 100 (GM FITC) [4]: 10% | binding, WT hCD27 = 100 (GM FITC) [5]: 7.8% | EC50 [6]: 1.92 nM | IC50 (read off the curve) [7]: 4 nM | EC50 [8]: 1.58 nM | NF-κB-luciferase reporter assay, Emax [9]: 1.48 fold change | NF-κB-luciferase reporter assay, Emax [10]: 1.3 fold change | NF-κB-luciferase reporter assay, Emax [11]: 1.33 fold change | binding, WT hCD27 = 100 (GM FITC) [12]: 96% | binding, WT hCD27 = 100 (GM FITC) [13]: 105% | binding, WT hCD27 = 100 (GM FITC) [14]: 153% | binding, WT hCD27 = 100 (GM FITC) [15]: 104% | binding, WT hCD27 = 100 (GM FITC) [16]: 89.5% | binding, WT hCD27 = 100 (GM FITC) [17]: 109% | binding, WT hCD27 = 100 (GM FITC) [18]: 99% | binding, WT hCD27 = 100 (GM FITC) [19]: 120% | binding, WT hCD27 = 100 (GM FITC) [20]: 116% | binding, WT hCD27 = 100 (GM FITC) [21]: 156% | binding, WT hCD27 = 100 (GM FITC) [22]: 143% | binding, WT hCD27 = 100 (GM FITC) [23]: 115% | binding, WT hCD27 = 100 (GM FITC) [24]: 128% | binding, WT hCD27 = 100 (GM FITC) [25]: 113% | binding, WT hCD27 = 100 (GM FITC) [26]: 144% | binding, WT hCD27 = 100 (GM FITC) [27]: 171% | binding, WT hCD27 = 100 (GM FITC) [28]: 95.4% | binding, WT hCD27 = 100 (GM FITC) [29]: 150% | binding, WT hCD27 = 100 (GM FITC) [30]: 202% | binding, WT hCD27 = 100 (GM FITC) [31]: 205% | binding, WT hCD27 = 100 (GM FITC) [32]: 176% | binding, WT hCD27 = 100 (GM FITC) [33]: 103% | binding, WT hCD27 = 100 (GM FITC) [34]: 95.1% | binding, WT hCD27 = 100 (GM FITC) [35]: 96.5% | binding, WT hCD27 = 100 (GM FITC) [36]: 82.5% | binding, WT hCD27 = 100 (GM FITC) [37]: 101% | binding, WT hCD27 = 100 (GM FITC) [38]: 66.3% | binding, WT hCD27 = 100 (GM FITC) [39]: 88% | binding, WT hCD27 = 100 (GM FITC) [40]: 85.5% | binding, WT hCD27 = 100 (GM FITC) [41]: 92.8% | binding, WT hCD27 = 100 (GM FITC) [42]: 59.6% | binding, WT hCD27 = 100 (GM FITC) [43]: 121% | binding, WT hCD27 = 100 (GM FITC) [44]: 120% | binding, WT hCD27 = 100 (GM FITC) [45]: 112% | binding, WT hCD27 = 100 (GM FITC) [46]: 73.1% | EC50 [47]: 1.54 nM | binding, WT hCD27 = 100 (GM FITC) [48]: 42.5% | binding, WT hCD27 = 100 (GM FITC) [49]: 40.8% | EC50 [50]: 1.3 nM
Substance: 1F5-hIgG1 (antibody)
